Measured values as given in the supplement of paper PMC9170038.

Test system: MS2 coat protein
Assay: apparent KD of MS2 coat protein; designed switch direction (-1 OFF switch, 1 ON switch): -1; higher = weaker reporter binding
Method in brief: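 The apparent KD reported per design is the median over clusters of curve fits to normalised cluster fluorescence. The RNA switches were transcribed on Illumina chips by stalled E. coli RNA polymerase. SNAP-549-labelled MS2 coat protein was titrated from 0.7 or 1.5 nM, doubling up to 3 µM, in Tris-HCl pH 7.5 buffer containing KCl, MgCl2, BSA, DTT, tRNA and Tween-20, with no input, 200 uM small-molecule ligand, or an oligonucleotide input.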

[1] = Eterna round: R95, input ligand: microRNA oligo, concentration not stated
[2] = input ligand: microRNA oligo, concentration not stated
[3] = Eterna round: R95, input ligand: FMN 200 uM
[4] = Eterna round: R95, input ligand: none

| Sequence | apparent KD of MS2 coat protein [1] [nM] | apparent KD of MS2 coat protein (input ligand: FMN 200 uM) [nM] | apparent KD of MS2 coat protein [2] [nM] | apparent KD of MS2 coat protein (input ligand: none) [nM] | apparent KD of MS2 coat protein [3] [nM] | apparent KD of MS2 coat protein [4] [nM] |
| --- | --- | --- | --- | --- | --- | --- |
| CCGGAAAUACAGGAUAUAGGAGUAAAUAUACUCCUAGAAGGGUAUACAUGAGGAUCACCCAUGUGUCCUACCGG [Fiskers Ex 6 - 67] (puzzle: Exclusion 6) | 23.4 | – | – | – | – | – |
| UUAAUUAAUUGACUGCAAGAUCAACAUGAGGAUCACCCAUGUGAGGAUAUCAGCUCGAUUAGAGCUGAGAAGGCACAAGCAGUC [ExNG3/16-A1] (Eterna round: R96, puzzle: Exclusion NG 3) | – | 80.4 | 15 | 17.5 | – | – |
| ACGCCGCAAGGAUAUACUUGCGGUGAUGUUCGAGUUCUUCUACUUGAGGAUCACCCAAGUAGAAGGUGCAAAAC [jl-ex2.4.60 ViennaUCT mod] (Eterna round: R97, puzzle: Exclusion 2) | – | 14.9 | – | 14 | – | – |
| GUAAAAUAAGCUUAUUUACACAUGAGGAUCACCCAUGUAUUGGACGGACUCCUGACCUCAAUUAUAUGCUCGUAUCG [Eternabot (L1) Solution 41] (Eterna round: R97, puzzle: Sensor, turn-off variant 1) | – | 77.6 | – | 79.5 | – | – |
| GCAGUAUGAGUUAGGAUAUGAUGAUUUAAAAUAAAUCAGAAGGAACUUGAGGAUCACCCAAGUAAAGAAUUGGU [JR_BMEx4_Sub071] (Eterna round: R97, puzzle: Brourd's mod of Exclusion 4) | – | 25.3 | – | 22.1 | – | – |
| AAAAUAAAGAUGCCUUAAAACAUGAGGAUCACCCAUGUGAGUAAGGAUAUCGGAACCAAUCGCGACGAGAAGGUACUCGCGUGU [Ceestemaat] (Eterna round: R96, puzzle: Exclusion NG 3) | – | 9.87 | 9.44 | 14.4 | – | – |
| CCAUCGUGUGUGAGGAUAUGCUGGACCUUGGUUCAGCAGAAGGCACAUGAGGAUCACCCAUGUGAAUACGGUGG [Mat - Exclusion 4 - JL Mod - D90] (puzzle: Brourd's mod of Exclusion 4) | 16.1 | – | – | – | – | – |
| GAUUAUGCGAGCUUUAGGGACAUGAGGAUCACCCAUGUUCGUCUUAUUGGUCUGGAUACGCUGACAUACCUAAAUCU [JMF 97] (puzzle: Sensor v3, turn-off variant 1) | 28.4 | – | – | – | 18.6 | 20.9 |
| UCACGUUAGGAGGAUAUCGAUCCAUUAGCGCGACGAGAAGGCCUGACAUGAGGAUCACCCAUGUGGUCAAACAA [Bexelaar] (puzzle: Exclusion 6) | 265 | – | – | – | 52.1 | 158 |
| GAACGCCGGCAGGAUAUGGACAGCCAAAAGGCGCCAGAAGGGCCAACAUGAGGAUCACCCAUGUGUCCUGAUGG [Riceanon] (puzzle: Exclusion 6) | 8.46 | – | – | – | 10.9 | 10.3 |
| GGCAUCGGAGGAUAUACUUAUGGUGAUACCGGAAGCUUUCUACUUGAGGAUCACCCAAGUAGAAGGCCGAUGCC [jl-ex2.4.84 ViennaUCT mod] (Eterna round: R97, puzzle: Exclusion 2) | – | 9.01 | – | 22.9 | – | – |
| CUGAGCUGAGGAUAUACAUGAGGAUCACCCAUGUGUUGGAGCUUGCGUACAGGCAGAUGUAGAAGGCAGUUCGG [JL-ex3-3.32 Brourd mod] (puzzle: Exclusion 3) | 19.5 | – | – | – | – | – |
| CUCAGACAUGAGGAUCACCCAUGUGAGGAUAUGAUGCGAUCGUCGAAAGACGAUAGCAUCAGAAGGCACAAAUG [Fiskers Ex 1 - 24] (puzzle: Exclusion 1) | 71.2 | – | – | – | – | – |
| UUAAAUCAUGUAGGAUAUGCGUGGCGAAGCUAUGCAGAAGGACAUGAGGAUCACCCAUGUUCUAGCGUCCGCGUACGGAUGCAA [JL Eng1 1.21 mod 10] (Eterna round: R96, puzzle: Exclusion NG 1) | – | 144 | 12 | 18.6 | – | – |
| UAGAUACAUGAGGAUCACCCAUGUGAGGAUAUGAAUAAGAAUAGAUAAGAUAGUAGAAUCAGAAGGCACAAUGG [Starry Exclusion 1.2] (puzzle: Exclusion 1) | 47.4 | – | – | – | 70.1 | 51.8 |
| GUGUACGCAGGAUAUACAUGAGGAUCACCCAUGUGAAUAAGAUAGAAUAAGAUAAAGUGUAGAAGGGCGAGUGU [Excluse me!!! 5 - Jieux - Exclusion 3] (puzzle: Exclusion 3) | 28.3 | – | – | – | – | – |
| ACCUUACUGGUCAGGAUAUACAGUCUCGGGUGGGUGUAGAAGGGACAUGAGGAUCACCCAUGUAGGUUGCAGCA [alecazam56] (Eterna round: R97, puzzle: Brourd's mod of Exclusion 4) | – | 100 | – | 156 | – | – |
| AAUUAAGCAAGCAGAUCCCACAUGAGGAUCACCCAUGUGCUCGUCUUAUAAGGUACUGUGACGAUAGUCACGGUACC [Mat - Sensor, turn-off var - Eli Mod - D71] (Eterna round: R97, puzzle: Sensor, turn-off variant 1) | – | 135 | – | 140 | – | – |

| Sequence | apparent KD of MS2 coat protein [1] [nM] | apparent KD of MS2 coat protein (input ligand: FMN 200 uM) [nM] | apparent KD of MS2 coat protein [2] [nM] | apparent KD of MS2 coat protein (input ligand: none) [nM] | apparent KD of MS2 coat protein [3] [nM] | apparent KD of MS2 coat protein [4] [nM] |
| --- | --- | --- | --- | --- | --- | --- |
| GGUUAUUGCAAGGAUAUGCUAUUAUUUUAUUUUGCAGAAGGUGCAACAUGAGGAUCACCCAUGUUGGAGGGUUU [JR_E6_Sub024] (puzzle: Exclusion 6) | 17.9 | – | – | – | – | – |
| UAGAUACAUGAGGAUCACCCAUGUGAGGAUAUGAGAAUUAUAUUAAAUGAAUGAAUUUUCAGAAGGCACAAAGG [JR_Ex1_Sub051] (Eterna round: R97, puzzle: Exclusion 1) | – | 482 | – | 221 | – | – |
| AAAAAACAAGGAUAUACAAAAAAAAAAUGUGUUAAAUUUUCACAUGAGGAUCACCCAUGUAGAAGGUGUAAAAA [JR_Exclusion2_Sub005] (puzzle: Exclusion 2) | 49.1 | – | – | – | 46 | 51.7 |
| CAGGGCAUGCGAGGAUAUAGCAACAUGAGGAUCACCCAUGUAUAAGGGUGUCCAAGGCAUGCGCGCUAGAAGGCGCUGGUUCUC [Gemadi] (Eterna round: R96, puzzle: Exclusion NG 2) | – | 343 | 64.6 | 116 | – | – |
| GCACGAAGUGUAGGAUAUCUGUGCGAUUAGCUCAGAGAAGGACACAUGAGGAUCACCCAUGUUUUCCGCGGAAGCAAUACGUGC [Eli exng1 - 058] (Eterna round: R96, puzzle: Exclusion NG 1) | – | 26.5 | 13.2 | 17.9 | – | – |
| AUGAGACAUGAGGAUCACCCAUGUGAGGAUAUGUAUGGAUGAAGGAAAGAAUGAGAGAACAGAAGGCACGAAGA [JR_Exclu1_Sub064] (puzzle: Exclusion 1) | 98.9 | – | – | – | 109 | 138 |
| GAGAGAUAGAUAGAGGACGACAUGAGGAUCACCCAUGUGAGGGAAAUGUUAAGGAGAAAGCUUUUUGCUCGUCUUAA [JR_SV3TOV1_Sub034] (puzzle: Sensor v3, turn-off variant 1) | 57.7 | – | – | – | 123 | 152 |
| CAGGAGUCAGGAUAUCGUUACCACGGAGUUGCUGUGCAUAACGAGAAGGGACAUGAGGAUCACCCAUGUGCCUC [Eternabot (L1) Solution 98] (Eterna round: R97, puzzle: Exclusion 4) | – | 57.6 | – | 22.3 | – | – |
| GGUCUGCGAGGAUAUACAUGAGGAUCACCCAUGUGAGUGAUACUAGUGAGGUCGAUUGGUAGAAGGCGCGGACG [JL-ex3-2.05 salish99 mod] (puzzle: Exclusion 3) | 445 | – | – | – | 37 | 839 |
| AUGAGGUUAGGAUAUACAUGAGGAUCACCCAUGUUGAAAGGUUAGGUAGGCGGAGCUGGUAGAAGGAACGGAGC [JR_Exclu3_Sub056] (puzzle: Exclusion 3) | 27.8 | – | – | – | – | – |
| UUUUUAUAUGAAGGAUAUACUUAACAUGAGGAUCACCCAUGUGGUGUUGUGAGUGAGUGAGUUUAGUAGAAGGUCAAGUACUUU [JMF's solution 37] (Eterna round: R96, puzzle: Exclusion NG 2) | – | 614 | 380 | 574 | – | – |
| UGAGCAUGAGGAUAUACAAGGCGACCGUGAGGUCGAGGUUUACAUGAGGAUCACCCAUGUAGAAGGCAUGUUCU [jl-ex2-4.07] (Eterna round: R97, puzzle: Exclusion 2) | – | 40.2 | – | 20 | – | – |
| AGAGUGUGAGGAUAUAUGGUGAAGGUGAAGAGAGAGGAGGAGUAGAAGGUACAUGAGGAUCACCCAUGUUUGGA [JR_Exclu4_Sub075] (puzzle: Exclusion 4) | 33 | – | – | – | 32.1 | 40.8 |
| AAUGUUUGAUUCCACUUAUACAUGAGGAUCACCCAUGUUAUCGAGGAUAUGCAUUAGAGUGUUUAGCAGAAGGCGAUGUAAUUG [JR_ExcNG3_Sub034] (Eterna round: R96, puzzle: Exclusion NG 3) | – | 90.2 | 13.1 | 13.8 | – | – |
| GAUUGAGAGCAGGAUAUAUUCCUGAUGUAUGAAGUAGAAGGGCUCACAUGAGGAUCACCCAUGUGAUCCUGAAU [JL Dibri mod 17 mod] (Eterna round: R97, puzzle: Exclusion 6) | – | 15.3 | – | 14.3 | – | – |
| AAUCCACAUGAGGAUCACCCAUGUCAGGAUAUCGUGUCGCGGGUUUCGGUCCGUGAUGCGAGAAGGGACGGCUG (puzzle: Exclusion 1) | 27.4 | – | – | – | – | – |
| AUCGUGCAGCUUUGCUGUACGAGUACAUGAGGAUCACCCAUGUAGGAUAUGGUACGCUUUGCGUGCUAGAAGGAUAUGAGAUGU [JL ENG3 1.49] (Eterna round: R96, puzzle: Exclusion NG 3) | – | 37.6 | 32 | 33 | – | – |
